{
  "source": "paper PMC2668204",
  "about": "(Cellular signalling, 2009)",
  "proteins": {"B1": {"name": "masGRK3ct-Rluc8 (domain or fragment)", "chain": "MGSSKSKTSNSGIKLLDCDQELYKNFPLVISERWQQEVAETVYEAVNADTDKIEARKRAKNKQLGHEEDYALGRDCIVHGYMLKLGNPFLTQWQRRYFYLFPNRLEWRGEGESRQSLLTMEQIVSVEETQIKDKKCILLRIKGGKQFVLQCESDPEFVQWKKELTETFMEAQRLLRRAPKFLNKSRSAVVELSKPPLCHRNSNGL", "modifications": "myristoylation directed by the N-terminal mas peptide"}},
  "target": "venus-labeled Gβγ dimers (venus155–239-Gβ1 with venus1–155-Gγ2) (human, UniProt P62873 1-340; P59768 1-71)",
  "assay": "FRET or BRET",
  "data": [
    {"protein": "B1", "values": [
      {"measurement": "adenosine-induced BRET increase (highest relative expression of C-TM-Gα i1)", "value": "0.025 ± 0.003"},
      {"measurement": "adenosine-induced BRET increase (lowest relative expression of C-TM-Gα i1)", "value": "0.05 ± 0.007"}
    ]}
  ]
}
